{"source": "paper PMC11745445", "about": "(2024)", "parents": {"B1": {"name": "LV-MKK3-His-WT (His-labeled wild-type MKK3) in HT-22 cells [not stated] / RAGE (receptor for advanced glycation end products), endogenous in HT-22 cells [mouse (endogenous in HT-22)] (parent complex)", "chain 1": "MESPAASPPASLPQTKGKSKRKKDLRISCVSKPPVSNPTPPRNLDSRTFITIGDRNFEVEADDLVTISELGRGAYGVVEKVRHAQSGTIMAVKRIRATVNTQEQKRLLMDLDINMRTVDCFYTVTFYGALFREGDVWICMELMDTSLDKFYRKVLEKNMKIPEDILGEIAVSIVRALEHLHSKLSVIHRDVKPSNVLINKEGHVKMCDFGISGYLVDSVAKTMDAGCKPYMAPERINPELNQKGYNVKSDVWSLGITMIEMAILRFPYESWGTPFQQLKQVVEEPSPQLPADQFSPEFVDFTSQCLRKNPAERMSYLELMEHPFFTLHKTKKTDIAAFVKEILGEDS", "chain 2": "GQNITARIGEPLVLSCKGAPKKPPQQLEWKLNTGRTEAWKVLSPQGGPWDSVARILPNGSLLLPATGIVDEGTFRCRATNRRGKEVKSNYRVRVYQIPGKPEIVDPASELTASVPNKVGTCVSEGSYPAGTLSWHLDGKLLIPDGKETLVKEETRRHPETGLFTLRSELTVIPTQGGTHPTFSCSFSLGLPRRRPLNTAPIQLRVREPGPPEGIQLLVEPEGGIVAPGGTVTLTCAISAQPPPQVHWIKDGAPLPLAPSPVLLLPEVGHEDEGTYSCVATHPSHGPQESPPVSIRVTETGDEGPAEGSVGESGLGTLALALGILGGLGVVALLVGAILWRKRQPRREERKAPESQEDEEERAELNQSEEAEMPENGAGGP"}}}
{"variants_of": "B1", "test": "co-IP (IP: RAGE, IB: MKK3-His) followed by western blotting, optical density; hippocampus of MKK3-knockdown db/db mice; n = 4 in each group; parent: 3.1; read off a plot"}
{"variant": "chain 1 MESPAASPPASLPQTKGKSKRKKDLRISCVSKPPVSNPTPPRNLDSRTFITIGDRNFEVEADDLVTISELGRGAYGVVEKVRHAQSGTIMAVKRIRATVNTQEQKRLLMDLDINMRTVDCFYTVTFYGALFREGDVWICMELMDTSLDKFYRKVLEKNMKIPEDILGEIAVSIVRALEHLHSKLSVIHRDVKPSNVLINKEGHVKMCDFGISGYLVDSVAKTMDAGCKPYMAPERINPELNQKGYNVKSDVWSLGITMIEMAILRFPYESWGTPFQQLKQVVEEPSPQLPADQFSPEFVDFTSQCLRKNPAERMSYLELMEHPFFTLHATKKTDIAAFVKEILGEDS", "note": "[chain 1 K329A]", "response": "~1.4 fold change relative to the db/db + MKK3-shRNA group"}
{"variants_of": "B1", "test": "co-IP (IP: MKK3-His, IB: RAGE) followed by western blotting, optical density; hippocampus of MKK3-knockdown db/db mice; n = 4 in each group; parent: 1.7; read off a plot"}
{"variant": "chain 1 MESPAASPPASLPQTKGKSKRKKDLRISCVSKPPVSNPTPPRNLDSRTFITIGDRNFEVEADDLVTISELGRGAYGVVEKVRHAQSGTIMAVKRIRATVNTQEQKRLLMDLDINMRTVDCFYTVTFYGALFREGDVWICMELMDTSLDKFYRKVLEKNMKIPEDILGEIAVSIVRALEHLHSKLSVIHRDVKPSNVLINKEGHVKMCDFGISGYLVDSVAKTMDAGCKPYMAPERINPELNQKGYNVKSDVWSLGITMIEMAILRFPYESWGTPFQQLKQVVEEPSPQLPADQFSPEFVDFTSQCLRKNPAERMSYLELMEHPFFTLHATKKTDIAAFVKEILGEDS", "note": "[chain 1 K329A]", "response": "~1.1 fold change relative to the db/db + MKK3-shRNA group"}
{"variants_of": "B1", "test": "co-IP (IP: MKK3-His, IB: RAGE) followed by western blotting, optical density; MKK3-knockdown HT-22 cells, high-glucose stimulation 24 hours; n = 4 in each group; parent: 4; read off a plot"}
{"variant": "chain 1 MESPAASPPASLPQTKGKSKRKKDLRISCVSKPPVSNPTPPRNLDSRTFITIGDRNFEVEADDLVTISELGRGAYGVVEKVRHAQSGTIMAVKRIRATVNTQEQKRLLMDLDINMRTVDCFYTVTFYGALFREGDVWICMELMDTSLDKFYRKVLEKNMKIPEDILGEIAVSIVRALEHLHSKLSVIHRDVKPSNVLINKEGHVKMCDFGISGYLVDSVAKTMDAGCKPYMAPERINPELNQKGYNVKSDVWSLGITMIEMAILRFPYESWGTPFQQLKQVVEEPSPQLPADQFSPEFVDFTSQCLRKNPAERMSYLELMEHPFFTLHATKKTDIAAFVKEILGEDS", "note": "[chain 1 K329A]", "response": "~1.4 fold change relative to the HG + MKK3-shRNA group"}
{"variants_of": "B1", "test": "co-IP (IP: RAGE, IB: MKK3-His) followed by western blotting, optical density; MKK3-knockdown HT-22 cells, high-glucose stimulation 24 hours; n = 4 in each group; parent: 3.4; read off a plot"}
{"variant": "chain 1 MESPAASPPASLPQTKGKSKRKKDLRISCVSKPPVSNPTPPRNLDSRTFITIGDRNFEVEADDLVTISELGRGAYGVVEKVRHAQSGTIMAVKRIRATVNTQEQKRLLMDLDINMRTVDCFYTVTFYGALFREGDVWICMELMDTSLDKFYRKVLEKNMKIPEDILGEIAVSIVRALEHLHSKLSVIHRDVKPSNVLINKEGHVKMCDFGISGYLVDSVAKTMDAGCKPYMAPERINPELNQKGYNVKSDVWSLGITMIEMAILRFPYESWGTPFQQLKQVVEEPSPQLPADQFSPEFVDFTSQCLRKNPAERMSYLELMEHPFFTLHATKKTDIAAFVKEILGEDS", "note": "[chain 1 K329A]", "response": "~1.1 fold change relative to the HG + MKK3-shRNA group"}
